Results: patent publication US20100015126A1, “Methods of Binding of Cross-Beta Structures By Chaperones” (priority 2006, published 2010)

B1: IGHM protein, immunoglobulin heavy constant gamma 2 (protein)
chain: ASTKGPSVFPLAPCSRSTSESTAALGCLVKDYFPEPVTVSWNSGALTSGVHTFPAVLQSSGLYSLSSVVTVPSSNFGTQTYTCNVDHKPSNTKVDKTVERKCCVECPPCPAPPVAGPSVFLFPPKPKDTLMISRTPEVTCVVVDVSHEDPEVQFNWYVDGVEVHNAKTKPREEQFNSTFRVVSVLTVVHQDWLNGKEYKCKVSNKGLPAPIEKTISKTKGQPREPQVYTLPPSREEMTKNQVSLTCLVKGFYPSDISVEWESNGQPENNYKTTPPMLDSDGSFFLYSKLTVDKSRWQQGNVFSCSVMHEALHNHYTQKSLSLSPGK
B2: CDNA FLJ14473 fis, clone MAMMA1001080, highly similar to Homo sapiens SNC73 protein (SNC73) mRNA, immunoglobulin heavy constant alpha 1 (protein, UniProt P01876 1-398, looked up)
Immunoglobulin heavy constant …: ASPTSPKVFPLSLCSTQPDGNVVIACLVQGFFPQEPLSVTWSESGQGVTARNFPPSQDASGDLYTTSSQLTLPATQCLAGKSVTCHVKHYTNPSQDVTVPCPVPSTPPTPSPSTPPTPSPSCCHPRLSLHRPALEDLLLGSEANLTCTLTGLRDASGVTFTWTPSSGKSAVQGPPERDLCGCYSVSSVLPGCAEPWNHGKTFTCTAAYPESKTPLTATLSKSGNTFRPEVHLLPPPSEELALNELVTLTCLARGFSPKDVLVRWLQGSQELPREKYLTWASRQEPSQGTTTFAVTSILRVAAEDWKKGDTFSCMVGHEALPLAFTQKTIDRLADWQMPPPYVVLDLPQETLEEETPGANLWPTTITFLTLFLLSLFYSTALTVTSVRGPSGNREGPQY
B3: IGHM protein, immunoglobulin heavy chain mu (heavy chain disease protein) (protein)
chain: GSASAPTLFPLVSCENSPSDTSSVAVGCLAQDFLPDSITFSWKYKNNSDISSTRGFPSVLRGGKYAATSQVLLPSKDVMQGTDEHVVCKVQHPNGNKEKNVPLPVIAELPPKVSVFVPPRDGFFGNPRKSKLICQATGFSPRQIQVSWLREGKQVGSGVTTDQVQAEAKESGPTTYKVTSTLTIKESDWLGQSMFTCRVDHRGLTFQQNASSMCVPDQDTAIRVFAIPPSFASIFLTKSTKLTCLVTDLTTYDSVTISWTRQNGEAVKTHTNISESHPNATFSAVGEASICEDDWNSGERFTCTVTHTDLPSPLKQTISRPKGVALHRPDVYLLPPAREQLNLRESATITCLVTGFSPADVFVQWMQRGQPLSPEKYVTSAPMPEPQAPGRYFAHSILTVSEEEWNTGETYTCVVAHEALPNRVTERTVDKSTGKPTLYNVSLVMSDTAGTCY
B4: Histidine-rich glycoprotein precursor (protein)
chain: VSPTDCSAVEPEAEKALDLINKRRRDGYLFQLLRIADAHLDRVENTTVYYLVLDVQESDCSVLSRKYWNDCEPPDSRRPSEIVIGQCKVIATRHSHESQDLRVIDFNCTTSSVSSALANTKDSPVLIDFFEDTERYRKQANKALEKYKEENDDFASFRVDRIERVARVRGGEGTGYFVDFSVRNCPRHHFPRHPNVFGFCRADLFYDVEALDLESPKNLVINCEVFDPQEHENINGVPPHLGHPFHWGGHERSSTTKPPFKPHGSRDHHHPHKPHEHGPPPPPDERDHSHGPPLPQGPPPLLPMSCSSCQHATFGTNGAQRHSHNNNSSDLHPHKHHSHEQHPHGHHPHAHHPHEHDTHRQHPHGHHPHGHHPHGHHPHGHHPHGHHPHCHDFQDYGPCDPPPHNQGHCCHGHGPPPGHLRRRGPGKGPRPFHCRQIGSVYRLPPLRKGEVLPLPEANFPSFPLPHHKHPLKPDNQPFPQSVSESCPGKFKSGFPQVSMFFTHTFPK

Molecular target: T1, BiP-Sepharose (Homo sapiens, UniProt P11021)
T1 construct: The human BiP gene except the signal peptide encoding region was obtained from Geneart (Germany); linker […]; made in house; host or cells: HEK 293E cells, transient transfection, PABC674 vector; secreted into the medium
Assay: Experiment 2: BiP-Sepharose extraction from six synovial fluid samples of RA patients and mass spectrometry
Assay type: binding
Conditions: BiP-Sepharose eluate, synovial fluid of RA patient
Experimental: Six samples were incubated with the BiP-Sepharose, IgIV-Sepharose and the control-Sepharose: Normal pooled plasma, plasma of a patient I or of a patient II, with AL amyloidosis, serum of a patient III with RA (Rheumatoid Factor (RF) titer 682), control serum and synovial fluid of a patient IV with RA (RF titer 23). All samples were diluted 20× in HBS and applied to 200 μl beads in two volumes of 500 μl. One volume was incubated for 4 h at RT and supernatant was discarded after centrifugation (2 minutes at 1400 rpm). Subsequently, the second volume was applied to the same matrix and incubated overnight on a roller device at 4° C. […] To collect the eluates, the matrices were centrifuged and the two eluates were pooled for each sample.
Protein digests were desalted as described (Rappsilber et al., 2003), vacuum dried and dissolved in 2.5% formic acid.
For analysis of peptide mixtures, an Agilent 1100 HPLC system (Agilent Technologies) connected to a Thermo Finnigan LTQ-MS (Thermo Electron, Bremen, Germany) was used. Protein digests were injected on a trap column (Reprosil C18 RP (Dr Maisch, Germany), 20 mm×100 μm I.D.) at 5 μl/minute. Subsequently, the peptides were transferred with a split-reduced flow rate of 100 nL/minute solvent A (0.1 M acetic acid) on the analytical column (Reprosil C18 RP, 20 cm×50 μm I.D.). […] The column effluent was directly introduced into the ESI source of the mass spectrometer via a butt-connected nano-ESI emitter (New Objectives, Woburn, Mass.). The mass spectrometer was operated in the positive ion mode and parent ions were selected for fragmentation in data-dependent mode.
After mass spectrometric measurements, peak lists were generated using BioWorks software (Thermo Electron, Bremen, Germany). Protein identification was performed using Mascot software (www.matrixscience.com) by searching the IPIhuman database (version 3.24, downloaded from ftp://ftp.ebi.ac.uk/pub/databases/IPI/current) using the following settings: fully tryptic peptides, peptide tolerance 0.8 Da, MS/MS tolerance 0.9 Da, 1 missed cleavage allowed, carbamidomethyl (Cys) and oxidation (Met) as fixed and variable modification, respectively. The Scaffold software package (www.proteomesoftware.com) was used to parse the data and to filter peptides at a confidence level of 95%, allowing only protein identification with at least 2 peptides identified.
Those samples are listed below: • 1. […] One difference when compared to the protocol described above is that now with the twelve samples, elution buffer comprised 1 M NaCl. Again, a misfolded protein or a protein binding to misfolded protein is identified uniquely in the synovial fluid when no or a relatively very low number of fragments are detected in eluates of control-Sepharose.

T1 sequence (P11021 19-654): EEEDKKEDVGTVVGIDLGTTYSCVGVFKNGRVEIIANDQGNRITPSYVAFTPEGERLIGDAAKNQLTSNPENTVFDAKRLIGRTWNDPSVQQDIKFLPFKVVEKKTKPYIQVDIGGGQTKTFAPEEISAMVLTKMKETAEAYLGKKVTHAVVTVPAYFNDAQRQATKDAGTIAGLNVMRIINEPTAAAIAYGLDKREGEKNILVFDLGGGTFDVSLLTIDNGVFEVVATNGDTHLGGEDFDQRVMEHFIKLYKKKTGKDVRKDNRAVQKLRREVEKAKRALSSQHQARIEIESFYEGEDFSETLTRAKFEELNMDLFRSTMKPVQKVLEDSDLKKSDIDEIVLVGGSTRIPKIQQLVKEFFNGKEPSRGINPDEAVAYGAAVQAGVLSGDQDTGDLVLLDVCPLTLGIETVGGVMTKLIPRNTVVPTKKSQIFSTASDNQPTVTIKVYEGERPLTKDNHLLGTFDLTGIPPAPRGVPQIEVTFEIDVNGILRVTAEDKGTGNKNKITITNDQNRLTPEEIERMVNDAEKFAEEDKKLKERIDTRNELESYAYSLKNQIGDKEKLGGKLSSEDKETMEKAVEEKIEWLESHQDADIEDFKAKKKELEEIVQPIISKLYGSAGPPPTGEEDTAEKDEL

Row | Molecule | # of unique peptides (Sample 1B) | # of unique peptides (Sample 2B) | # of unique peptides (Sample 3B) | # of unique peptides (Sample 5B)
1 | B1 | 1 | 1 |  | 
2 | B2 | 2 |  | 1 | 1
3 | B3 | 3 |  | 1 | 
4 | B4 | 2 | 1 |  | 1
